Substrate: NC(=O)C[C@H](N)C(=O)O
Experiment: ammonia release by direct Nesslerization; Lineweaver-Burk plot
Format: biochemical, Thermococcus sibiricus
Details: Tris-HCl 0.05 M, pH 9.0, 90 °C, printed substrate range 20-250 μM

B1: TsA (L-asparaginase from Thermococcus sibiricus) (Thermococcus sibiricus MM 739) (protein)
chain: MKKLLIIGTGGTIASAKTEQGYKSVLKIDEILKLAKIKLENGYKIDSTNIMNIDSTLIHPEDWEIIAKEVFKALDDYDGIIITHGTDTLAYTASMLSFMIKNPNKPIVLTGSMLPITENGSDAPRNIRTAIKFAMEDVAGVFVAFMDKIMLGCRTSKVRTLGLNAFMSINYPDVAYVKGEKILYNIPKEKFQPNGSPELDTKYEPRVVVLRVTPGLGGEIIDAVLDAGYKGIVLEGYGAGGLPYRKSNLLSKIKEITPKIPVIMTTQALYDGVDMRKYEVGRKALETGIIPAKDMTKEATITKLMWALGHTKDVEKIREIMHTNYVNEIKS
notes: full-length, 331 residues, codon-optimized synthetic gene in pET-28a(+) NheI/SalI, E. coli BL21 (DE3); SP-Sepharose ion exchange
- Km: 2800 µM
